We go through one molecule from article doi:10.1101/613059.

In this series the target is T1, Elav (Drosophila melanogaster (w1118), UniProt P16914 1-483).
T1 sequence: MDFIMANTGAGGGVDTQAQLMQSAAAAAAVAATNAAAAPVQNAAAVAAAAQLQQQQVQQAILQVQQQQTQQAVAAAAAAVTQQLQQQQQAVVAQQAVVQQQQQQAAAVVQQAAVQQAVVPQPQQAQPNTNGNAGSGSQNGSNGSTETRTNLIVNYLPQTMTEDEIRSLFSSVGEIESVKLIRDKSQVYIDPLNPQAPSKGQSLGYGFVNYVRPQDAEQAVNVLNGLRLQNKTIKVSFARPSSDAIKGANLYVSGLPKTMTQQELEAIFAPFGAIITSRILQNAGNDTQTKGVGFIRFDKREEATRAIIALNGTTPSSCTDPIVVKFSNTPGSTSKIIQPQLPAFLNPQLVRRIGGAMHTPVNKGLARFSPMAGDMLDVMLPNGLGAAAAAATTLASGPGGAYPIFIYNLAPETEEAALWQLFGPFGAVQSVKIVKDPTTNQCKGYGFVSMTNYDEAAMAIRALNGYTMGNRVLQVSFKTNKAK
Description: EMSA. For orientation: Mobility shift assays separate free from complexed probe on a gel.

B1: Dscam1 EBS mutant probe (ssRNA)
RNA: UGUGUAAGUGAGUACGGUCGCUGUGGUGUGAUGAUGGGUGUGG
modifications: U to G substitutions disrupting U-rich stretches
Turning to B1, the binding result is “no binding”.
